Where only a bound is given, the exact number is not on record here.

This test concerns the target C3b (UniProt P01024). The test is described as follows: cell-based or functional assay.

Sequence of C3b (P01024 749-1663 limits assumed, chain 1 of 2): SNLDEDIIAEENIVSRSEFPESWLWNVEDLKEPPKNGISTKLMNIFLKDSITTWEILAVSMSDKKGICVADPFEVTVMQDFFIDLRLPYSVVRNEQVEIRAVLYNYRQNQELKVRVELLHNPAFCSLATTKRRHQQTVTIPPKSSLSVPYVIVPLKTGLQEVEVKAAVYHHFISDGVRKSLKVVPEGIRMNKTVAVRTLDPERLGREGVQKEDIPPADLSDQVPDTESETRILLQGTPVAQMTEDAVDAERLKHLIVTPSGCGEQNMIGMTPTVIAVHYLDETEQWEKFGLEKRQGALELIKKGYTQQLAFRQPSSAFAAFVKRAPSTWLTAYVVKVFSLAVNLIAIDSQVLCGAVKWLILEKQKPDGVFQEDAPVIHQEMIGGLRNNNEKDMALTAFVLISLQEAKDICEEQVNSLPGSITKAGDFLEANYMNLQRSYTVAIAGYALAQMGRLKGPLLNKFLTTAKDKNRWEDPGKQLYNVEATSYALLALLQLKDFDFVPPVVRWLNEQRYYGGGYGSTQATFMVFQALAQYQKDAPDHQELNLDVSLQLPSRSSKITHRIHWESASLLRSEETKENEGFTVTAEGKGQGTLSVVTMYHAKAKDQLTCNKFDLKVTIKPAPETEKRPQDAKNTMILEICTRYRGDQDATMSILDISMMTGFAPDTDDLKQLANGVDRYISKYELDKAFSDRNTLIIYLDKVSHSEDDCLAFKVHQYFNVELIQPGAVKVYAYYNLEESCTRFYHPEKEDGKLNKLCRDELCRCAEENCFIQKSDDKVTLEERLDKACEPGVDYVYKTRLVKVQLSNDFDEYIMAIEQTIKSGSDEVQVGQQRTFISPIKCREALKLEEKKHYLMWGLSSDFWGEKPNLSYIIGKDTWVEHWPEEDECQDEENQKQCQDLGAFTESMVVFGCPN
Sequence of C3b (P01024 23-667 limits assumed, chain 2 of 2): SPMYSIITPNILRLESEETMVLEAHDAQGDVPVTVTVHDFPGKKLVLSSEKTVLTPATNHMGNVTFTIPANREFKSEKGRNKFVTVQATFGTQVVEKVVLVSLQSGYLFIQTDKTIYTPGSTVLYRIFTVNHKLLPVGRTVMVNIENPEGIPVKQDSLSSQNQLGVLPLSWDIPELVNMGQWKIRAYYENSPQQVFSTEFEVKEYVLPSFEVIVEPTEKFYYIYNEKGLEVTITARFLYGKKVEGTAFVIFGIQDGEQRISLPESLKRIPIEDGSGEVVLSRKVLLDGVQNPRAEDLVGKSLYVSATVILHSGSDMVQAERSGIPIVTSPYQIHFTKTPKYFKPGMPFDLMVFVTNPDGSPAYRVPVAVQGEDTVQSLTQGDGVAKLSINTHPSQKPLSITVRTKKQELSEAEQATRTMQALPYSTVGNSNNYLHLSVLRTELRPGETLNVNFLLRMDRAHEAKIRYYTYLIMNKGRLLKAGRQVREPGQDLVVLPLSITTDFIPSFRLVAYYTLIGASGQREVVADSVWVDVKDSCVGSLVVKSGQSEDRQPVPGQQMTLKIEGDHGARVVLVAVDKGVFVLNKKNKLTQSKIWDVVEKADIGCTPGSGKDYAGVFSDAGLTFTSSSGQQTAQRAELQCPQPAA

Turning to “soluble human CR1 (from UniProt P17927 42-1971) (receptor)”, the speed as cofactor in the degradation of C3b, against SPICEhis is over 2 fold.

The values are drawn from patent US20060115897A1.
